Results reported in US20210277145A1 (INSERM INSTITUT NATIONAL DE LA SANTE ET DE LA RECHERCHE …, published 2021).

B1: KB-AT-002/003_ABP (VHH)
chain: QVQLQESGGGLVQAGGSLRLSCAASGRTFNNNGMGWFRQAPGKEREFVAAISWSGGSTYYADSVKGRYIMSRDNAKNTVYLQMNSLKPEDTAVYYCAARTRYNSGLFSRNYDYWGQGTQVTVSSGGGSGGGSGGGSGGGSQVQLQESGGGLVQPGGSLRLSCAASALTFSSRAWAWYRQAPGKQRELVASITGGGTTNYADSVKGRFTISRDNAKNTVYLQMNSLKPEDTAVHYCNGYRYTYAWGQGTQVTVSSGRGGGSGGGSGGGSGGGSQGLIGDIALPRWGALWGDSV
notes: It was detected with anti-His tag antibodies, so the protein tested carried a His tag; also called KB-AT-002/003_AlbBP
B2: KB-VWF-013bv_ABP (VHH)
chain: QVQLQSGGGLVQAGDSLRLSCAASGRTFIRYAMAWFRQAPGKEREFVAAIPQSGGRSYYADSVKGRFTISRDNAKNTVYLQMNSLKPEDTAVYSCAATSTYYGRSAYSSHSGGYDYWGQGTQVTVSSGGGSGGGSGGGSGGGSQVQLVQSGGGLVQAGDSLRLSCAASGRTFIRYAMAWFRQAPGKEREFVAAIPQSGGRSYYADSVKGRFTISRDNAKNTVYLQMNSLKPEDTAVYSCAATSTYYGRSAYSSHSGGYDYWGQGTQVTVSSGRGGGSLTPRGVRLGGGSQGLIGDIALPRWGALWGDSV
notes: A tag is not described; also called KB-VWF-013_ABP
B3: KB-AT-002/003 (VHH)
chain: QVQLQESGGGLVQAGGSLRLSCAASGRTFNNNGMGWFRQAPGKEREFVAAISWSGGSTYYADSVKGRYIMSRDNAKNTVYLQMNSLKPEDTAVYYCAARTRYNSGLFSRNYDYWGQGTQVTVSSGGGSGGGSGGGSGGGSQVQLQESGGGLVQPGGSLRLSCAASALTFSSRAWAWYRQAPGKQRELVASITGGGTTNYADSVKGRFTISRDNAKNTVYLQMNSLKPEDTAVHYCNGYRYTYAWGQGTQVTVSS
notes: A tag is not described, but a His tag is likely, since the ELISA detects with anti-His antibodies

How the values were obtained:
human antithrombin = biological target: T1, human antithrombin (human, UniProt P01008 33-464); assay: biolayer interferometry (Octet-QK), human antithrombin coupled to amine-reactive sensors, sdAb in solution (100 microgram/ml by paragraph 127)
T1 construct: also called AT
Method: Example 4: Binding of murine albumin to a complex of antithrombin and KB-AT-002/003_ABP. We tested the binding of albumin to KB-AT-002/003_ABP while the sdAb was bound to antithrombin via biolayer-interferometry analysis using Octet-QK equipment (FIG. 4). To this end, human antithrombin was diluted in 0.1 M Mes (pH 5.0) to a concentration of 50 microgram/ml for coupling to EDC/NHS-activated amine-reactive biosensors (Fortébio, Menlo Park, Calif., USA). Sensors were rehydrated in 0.2 ml 0.1 M MES, pH 5.0 for 300 sec. Sensors were then activated via incubation with 0.1 ml 0.2 M EDC/0.095 M NHS mixture for 300 sec and subsequently incubated with 0.1 ml antithrombin-solution for 600 sec. Unoccupied amine-reactive sites were quenched by incubating with 1M ethanolamine for 180 sec, and sensors were allowed to reach stable baseline levels via incubation with phosphate-buffered saline supplemented with 0.1% Tween-20 (PBS-T) for 300 sec. Antithrombin-coated sensors were then transferred to wells containing KB-AT-002/003_ABP (100 microgram/ml in PBS-T) and incubated for 600 sec in order to visualize association of KB-AT-002/003_ABP to immobilized antithrombin. […] As is showing in the lower panel of FIG. 4, KB-AT-002/003_ABP bound readily to immobilized antithrombin.

[1] = biological target: T2, biotinylated human albumin (human, UniProt P02768 25-609, biotinylated (sites not given)); assay: biolayer interferometry (Octet-QK), bt-albumin on streptavidin sensors, sdAb at 125 or 250 microgram/ml
T2 construct: Captured on streptavidin biosensors; also called human bt-albumin; bt-albumin
Method: (§1) Example 2: Binding of KB-AT-002/003_ABP to biotinylated human albumin in a biolayer-interferometry analysis assay. We tested the binding of KB-AT-002/003_ABP to biotinylated human albumin using Octet-QK equipment (FIG. 2). To this end, biotinylated albumin (bt-albumin) was diluted in phosphate-buffered saline with 0.1% Tween-20 (PBS-T) to a concentration of 200 microgram/ml for absorption to streptavidin-high binding capacity sensors (Fortébio, Menlo Park, Calif., USA). Sensors were rehydrated in 0.2 ml PBS-T for 15 min. Sensors were then incubated with 0.1 ml bt-albumin solution for 600 sec. Sensors were subsequently allowed to reach stable baseline levels via incubation with PBS-T for 300 sec. bt-Albumin coated sensors were then transferred to wells containing KB-AT-002/003_ABP (125 or 250 microgram/ml in PBS-T) and incubated for 300 sec in order to visualize association of KB-AT-002/003_ABP to immobilized bt-albumin. Following this association phase, sensors were transferred to wells containing PBS-T, and incubated for 900 sec, allowing dissociation of the KB-AT-002/003_ABP/bt-albumin complex.
(§2) Example 3: Binding of KB-VWF-013bv_ABP to biotinylated human or murine albumin in a biolayer-interferometry analysis assay. We tested the binding of KB-VWF-013bv_ABP (SEQ ID NO: 6) to biotinylated human or murine albumin using Octet-QK equipment (FIG. 3). To this end, biotinylated albumin (bt-albumin) was diluted in phosphate-buffered saline with 0.1% Tween-20 (PBS-T) to a concentration of 200 microgram/ml for absorption to streptavidin-high binding capacity sensors (Fortébio, Menlo Park, Calif., USA). Sensors were rehydrated in 0.2 ml PBS-T for 15 min. Sensors were then incubated with 0.1 ml bt-albumin solution for 600 sec. Sensors were subsequently allowed to reach stable baseline levels via incubation with PBS-T for 300 sec. bt-Albumin coated sensors were then transferred to wells containing KB-VWF-013bv_ABP (125 or 250 microgram/ml in PBS-T) and incubated for 900 sec in order to visualize association of KB-VWF-013bv_ABP to immobilized bt-albumin.

murine albumin [2] = biological target: T3, murine albumin (murine, UniProt P07724 25-608); assay: immunosorbent assay: murine albumin coated at 10 microgram/ml, bound sdAb probed with peroxidase-labeled anti-His tag antibody, corrected for non-coated wells
Description: (§3) Example 1: Binding of KB-AT-002/003_ABP to human and murine albumin in an immunosorbent assay. Binding to albumin may be favorable to increase the size of sdAbs, which are smaller sized than conventional immunoglobulins (15 kDa versus 150 kDa, for a monovalent sdAb and IgG, respectively). A construct was established encoding a bi-paratopic sdAb (KB-AT-002/003) fused to an albumin binding peptide (ABP, with the amino acid sequence […]) resulting in the sdAb designated KB-AT-002/003_ABP (SEQ ID NO: 18). Purified KB-AT-002/003_ABP was tested for binding to both human and murine albumin. Human and murine albumin were immobilized (10 microgram/ml) in 10 mM NaHCO₃, 50 mM Na2CO3 (pH 9.5) in a volume of 50 microliter in microtiter plates (Greiner Bio-One, Les Ulis, France) for 16 h at 4° C. As a negative control, no albumin was immobilized. […]
(§4) Wells were then washed three times with 200 microliter/well using TBS-T. Bound of KB-AT-002/003_ABP was probed with peroxidase-labeled monoclonal anti-His tag antibodies (Abcam, diluted 1/10000) for 2 hours at 37° C. with 50 microliter/well. Wells were then washed three times with 100 microliter/well using TBS-T. Residual peroxidase activity was detected by measuring peroxidase-mediated […] of 3,3′,5,5′-tetramethylbenzidine. […]

[3] = biological target: T4, biotinylated murine albumin (murine, UniProt P07724 25-608, biotinylated (sites not given)); assay: biolayer interferometry (Octet-QK), bt-albumin on streptavidin sensors, sdAb at 125 or 250 microgram/ml
T4 construct: Captured on streptavidin biosensors; also called murine bt-albumin; bt-albumin
Method: as §1, §2

murine albumin [4] = biological target: T3, murine albumin; assay: ELISA, albumin coated at 10 microgram/ml, anti-His tag detection
Description: as §3, §4

human albumin = biological target: T5, human albumin (human, UniProt P02768 25-609); assay: as above
T5 construct: Coated on microtiter wells at 10 microgram/ml
Description: as §3, §4

T1 sequence (P01008 33-464 limits assumed): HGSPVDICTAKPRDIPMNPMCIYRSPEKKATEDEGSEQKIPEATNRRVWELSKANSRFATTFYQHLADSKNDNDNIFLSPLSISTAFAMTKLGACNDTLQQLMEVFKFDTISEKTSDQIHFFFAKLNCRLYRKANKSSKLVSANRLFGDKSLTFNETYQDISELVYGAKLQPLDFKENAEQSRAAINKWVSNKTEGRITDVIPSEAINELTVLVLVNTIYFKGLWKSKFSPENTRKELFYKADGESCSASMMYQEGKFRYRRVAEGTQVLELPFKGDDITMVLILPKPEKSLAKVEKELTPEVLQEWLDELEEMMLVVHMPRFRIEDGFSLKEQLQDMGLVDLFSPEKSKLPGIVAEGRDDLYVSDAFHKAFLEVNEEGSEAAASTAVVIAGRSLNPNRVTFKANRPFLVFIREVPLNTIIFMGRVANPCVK

Binder	binding result (human antithrombin)	Kd [1] [nM]	binding result (murine albumin [2])	Kd [3] [nM]	binding result (murine albumin [4])	binding result (human albumin)
B1	binds	420	binds	–	–	–
B2	–	99	–	83	–	–
B3	–	–	–	–	no binding (tested: 0-10 microgram/ml)	no binding (tested: 0-10 microgram/ml)
